For the assay, the target named is ANTXR1, Q9H6X2-2.
Chain of ANTXR1, Q9H6X2-2 (Q9H6X2 other isoform, or with tags, fused parts or gaps): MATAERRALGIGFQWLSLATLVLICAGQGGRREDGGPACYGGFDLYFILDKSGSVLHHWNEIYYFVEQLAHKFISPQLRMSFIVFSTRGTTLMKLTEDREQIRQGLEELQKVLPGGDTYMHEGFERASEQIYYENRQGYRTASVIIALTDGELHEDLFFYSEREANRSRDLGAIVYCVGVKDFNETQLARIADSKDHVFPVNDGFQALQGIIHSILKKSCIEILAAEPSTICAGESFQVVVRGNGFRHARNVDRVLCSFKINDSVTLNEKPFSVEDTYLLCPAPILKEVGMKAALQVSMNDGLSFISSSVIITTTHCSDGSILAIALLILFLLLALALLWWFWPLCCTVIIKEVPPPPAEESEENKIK

On to “Protective antigen (Bacillus anthracis) (from UniProt P13423) D712N”, for which the “effect of a mutation on the interaction” value is reported as “decreasing interaction”.
